Data on 7 molecules can be found in patent US20120207759A1 (WASHINGTON UNIVERSITY, published 2012).

Assay [1] has as its target T1, human HVEM expressed on transduced BJAB cells (full length) (human, UniProt Q92956 39-283).
T1 construct: also called hHVEM; hHVEM-IRES-GFP
T1 sequence: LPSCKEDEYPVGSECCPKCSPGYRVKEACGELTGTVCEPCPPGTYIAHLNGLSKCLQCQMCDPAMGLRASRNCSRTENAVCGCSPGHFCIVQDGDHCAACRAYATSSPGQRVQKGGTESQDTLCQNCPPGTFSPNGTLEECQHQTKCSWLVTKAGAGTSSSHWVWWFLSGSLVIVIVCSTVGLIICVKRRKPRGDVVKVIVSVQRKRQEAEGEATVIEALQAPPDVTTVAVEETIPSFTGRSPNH
Kind of assay: flow cytometry on transduced BJAB cells. From the text:
(§1) FIG. 36 HVEM is a ligand for BTLA. (A) NIH 3T3 cells and BJAB cells were transduced with splenocyte cDNA libraries and were directly stained with anti-Thy1.1-FITC and the C57BL/6 BTLA tetramer-phycoerythrin (Before sorting). These cells were sorted for the highest 0.5% population of BTLA tetramer staining with BTLA-phycoerythrin tetramer and Thy1.1-FITC and were subjected to an additional three rounds of similar sequential purification. After the fourth round of sorting, cell populations were expanded and cells were stained (After sorting). Numbers in each quadrant indicate the percentage of live cells in the indicated gate. (B) BJAB cells were transduced with the retroviruses mHVEM-IRES-GFP (mHVEM; mouse), hHVEM-IRES-GFP (hHVEM; human), 4-1 BB-IRES-GFP (4-1 BB; mouse) and LTβR-1RES-GFP (LTβR; mouse) and were stained with C57BL/6 BTLA tetramer-phycoerythrin or BALB/c BTLA tetramer-phycoerythrin. Numbers in dot plots indicate the percentage of BTLA tetramer staining in the GFP-positive population. (C, D) HVEM activates BTLA phosphorylation and SHP-2 association. EL-4 cells (EL4), BJAB cells expressing GFP (BJAB-GFP) or BJAB cells expressing mouse HVEM (BJAB-mHVEM) were added (+) or not added (−) for 4 min at 37° C. at a density of 25×10⁶ cells/ml. Cells were left untreated (−) or were treated (+) with pervanadate (VO₄) for 4 min. Total cell lysates were prepared and were immunoprecipitated with 6A6 (anti-mouse BTLA), and immunoblots were probed for SHP-2 (C) or for phosphotyrosine (D) in immunoprecipitates (IP) or in lysates without immunoprecipitation. Immunoblots using the isotype control for immunoprecipitation were negative for SHP-2 association (data not shown). Data in C and d are representative of four independent experiments. (E) BJAB cells were transduced with retrovirus mHVEM-ires-GFP or hHVEM-ires-GFP and were stained with human IgG1 isotype control (hIgG1), mB7x-Fc, mBTLA-Fc or hBTLA-Fc followed by anti-human IgG-phycoerythrin. Numbers in dot plots show the percentage of fusion protein staining in the GFP-positive population.

Assay [2] has as its target T2, B7x extracellular domain expressed on NIH 3T3 cells (mouse, UniProt Q7TSP5 25-257).
T2 construct: also called B7x-B7h-GFP; not shown: B7h transmembrane and cytoplasmic domains fused to GFP
T2 sequence: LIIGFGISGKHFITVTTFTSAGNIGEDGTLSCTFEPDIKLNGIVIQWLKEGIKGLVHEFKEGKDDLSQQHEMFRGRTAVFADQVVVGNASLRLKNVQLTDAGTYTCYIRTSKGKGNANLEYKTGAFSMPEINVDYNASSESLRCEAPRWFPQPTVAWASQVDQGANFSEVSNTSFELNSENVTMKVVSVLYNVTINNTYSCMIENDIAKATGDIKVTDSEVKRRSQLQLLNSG
Kind of assay: flow cytometry on NIH 3T3 transfectants. An excerpt: (§2) To test for direct interactions between BTLA and B7x, we made NI H 3T3 cell lines stably expressing the extracellular domains of B7x, BTLA, and programmed death 1 (PD-1) and its ligand (PD-L1), and stained the cells with PD-1 and BTLA tetramers and with PD-L1 and B7x Fc fusion proteins.

Assay [3] addresses T3, PD-L1 expressed on NIH 3T3 cells (UniProt Q9EP73 19-265, limits assumed).
T3 construct: domain: extracellular domains; also called PD-L1-GFP
Kind of assay: flow cytometry on NIH 3T3 transfectants.
Description: as §2

The target in the next assay is T4, SHIP (UniProt Q92835 1-1189, limits assumed).
T4 sequence (looked up): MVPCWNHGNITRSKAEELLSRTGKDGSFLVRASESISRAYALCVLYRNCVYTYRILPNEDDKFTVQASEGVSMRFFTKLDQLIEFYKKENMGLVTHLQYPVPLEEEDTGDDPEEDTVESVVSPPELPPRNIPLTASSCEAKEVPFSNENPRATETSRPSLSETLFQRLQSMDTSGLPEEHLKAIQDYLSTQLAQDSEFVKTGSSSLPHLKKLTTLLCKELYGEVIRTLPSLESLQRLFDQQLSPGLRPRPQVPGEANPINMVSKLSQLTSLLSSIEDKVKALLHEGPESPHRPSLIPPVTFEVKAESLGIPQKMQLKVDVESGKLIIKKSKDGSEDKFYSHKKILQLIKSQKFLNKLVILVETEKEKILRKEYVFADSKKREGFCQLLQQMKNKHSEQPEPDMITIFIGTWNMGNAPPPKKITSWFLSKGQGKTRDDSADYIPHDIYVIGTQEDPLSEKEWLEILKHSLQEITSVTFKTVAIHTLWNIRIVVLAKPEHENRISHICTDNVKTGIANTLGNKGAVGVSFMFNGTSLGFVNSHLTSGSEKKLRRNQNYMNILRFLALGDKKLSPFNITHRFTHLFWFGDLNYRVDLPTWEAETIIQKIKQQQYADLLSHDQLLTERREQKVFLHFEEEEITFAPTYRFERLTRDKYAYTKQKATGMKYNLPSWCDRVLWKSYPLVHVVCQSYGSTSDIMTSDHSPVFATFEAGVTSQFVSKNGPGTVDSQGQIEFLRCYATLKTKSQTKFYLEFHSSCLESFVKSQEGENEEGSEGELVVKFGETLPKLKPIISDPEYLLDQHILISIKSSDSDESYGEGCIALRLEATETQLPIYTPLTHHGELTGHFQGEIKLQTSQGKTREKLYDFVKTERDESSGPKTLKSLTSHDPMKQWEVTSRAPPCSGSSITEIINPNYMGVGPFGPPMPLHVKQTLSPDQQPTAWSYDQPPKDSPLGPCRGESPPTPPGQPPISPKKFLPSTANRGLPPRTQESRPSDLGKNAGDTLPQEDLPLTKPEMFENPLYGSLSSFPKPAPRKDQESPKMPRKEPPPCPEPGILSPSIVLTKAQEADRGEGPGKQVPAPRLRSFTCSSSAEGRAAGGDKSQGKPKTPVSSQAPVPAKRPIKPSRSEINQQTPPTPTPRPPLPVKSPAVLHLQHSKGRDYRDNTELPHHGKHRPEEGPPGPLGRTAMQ
Put plainly: co-immunoprecipitation.

The target of a further assay is SHP-1 (UniProt P29350 1-595). Put plainly: co-immunoprecipitation.
Sequence of SHP-1 (P29350 whole entry): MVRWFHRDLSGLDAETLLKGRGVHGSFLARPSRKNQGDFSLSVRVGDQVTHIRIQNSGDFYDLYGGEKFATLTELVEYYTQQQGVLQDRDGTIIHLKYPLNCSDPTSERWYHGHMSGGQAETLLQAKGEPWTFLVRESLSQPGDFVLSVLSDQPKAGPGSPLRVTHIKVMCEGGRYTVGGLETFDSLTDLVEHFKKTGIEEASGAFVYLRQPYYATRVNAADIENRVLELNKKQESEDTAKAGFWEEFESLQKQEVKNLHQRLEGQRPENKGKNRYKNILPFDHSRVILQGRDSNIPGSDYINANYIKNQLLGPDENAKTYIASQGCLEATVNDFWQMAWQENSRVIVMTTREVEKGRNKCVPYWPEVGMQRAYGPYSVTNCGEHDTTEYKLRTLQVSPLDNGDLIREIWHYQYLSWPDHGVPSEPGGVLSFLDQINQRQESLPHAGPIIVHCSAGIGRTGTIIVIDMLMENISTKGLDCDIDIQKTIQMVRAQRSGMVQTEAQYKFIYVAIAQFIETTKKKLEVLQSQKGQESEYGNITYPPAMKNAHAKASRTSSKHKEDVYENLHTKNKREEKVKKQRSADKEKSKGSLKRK
In another assay the target is Grb2 (UniProt P62993 1-217). Kind of assay: co-immunoprecipitation.
Sequence of Grb2 (P62993 whole entry): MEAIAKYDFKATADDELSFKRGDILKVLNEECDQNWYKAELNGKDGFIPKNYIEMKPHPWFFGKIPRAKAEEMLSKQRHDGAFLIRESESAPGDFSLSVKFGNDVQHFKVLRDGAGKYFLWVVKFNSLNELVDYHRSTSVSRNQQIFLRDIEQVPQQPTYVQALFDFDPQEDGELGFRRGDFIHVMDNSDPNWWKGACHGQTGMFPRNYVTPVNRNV
The target of assay [4] is T5, mouse LTβR expressed on transduced BJAB cells (mouse, UniProt P50284 31-415).
T5 construct: whole, on cells; also called LTI3R; mLT R
T5 sequence (P50284 31-415): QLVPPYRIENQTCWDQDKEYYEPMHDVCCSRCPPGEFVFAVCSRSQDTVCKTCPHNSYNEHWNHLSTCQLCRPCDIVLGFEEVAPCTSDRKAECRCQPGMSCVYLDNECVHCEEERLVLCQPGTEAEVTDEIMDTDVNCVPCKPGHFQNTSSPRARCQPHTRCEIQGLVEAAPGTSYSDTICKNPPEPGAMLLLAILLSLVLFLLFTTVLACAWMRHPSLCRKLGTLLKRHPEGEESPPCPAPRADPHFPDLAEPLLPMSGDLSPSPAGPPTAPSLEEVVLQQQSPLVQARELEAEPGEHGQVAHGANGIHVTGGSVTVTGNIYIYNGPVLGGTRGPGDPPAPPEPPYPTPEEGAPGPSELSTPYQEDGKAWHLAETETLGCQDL
Put plainly: flow cytometry on transduced BJAB cells.
Description: as §1

Assay [5] deals with T6, mouse 4-1BB expressed on transduced BJAB cells (mouse, UniProt P20334 24-256).
T6 construct: whole, on cells; also called m4-1BB; 4-1 BB-IRES-GFP
T6 sequence (looked up): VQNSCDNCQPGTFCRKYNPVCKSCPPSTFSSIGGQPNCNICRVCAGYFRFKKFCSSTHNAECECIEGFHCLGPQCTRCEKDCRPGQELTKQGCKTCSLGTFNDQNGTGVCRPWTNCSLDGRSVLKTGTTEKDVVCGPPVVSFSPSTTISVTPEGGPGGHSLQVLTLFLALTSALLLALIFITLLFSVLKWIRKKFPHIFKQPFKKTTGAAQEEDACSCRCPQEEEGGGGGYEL
Put plainly: flow cytometry on transduced BJAB cells.
Description: as §1

The target of assay [6] is T7, C57BL/6 allele of mouse BTLA expressed on transfected cells as a GFP fusion protein (mouse, UniProt Q7TSA3 30-306).
T7 construct: also called BJAB.B6 BTLA-GFP; C57BL/6 BTLA; not shown: GFP without its start codon
T7 sequence: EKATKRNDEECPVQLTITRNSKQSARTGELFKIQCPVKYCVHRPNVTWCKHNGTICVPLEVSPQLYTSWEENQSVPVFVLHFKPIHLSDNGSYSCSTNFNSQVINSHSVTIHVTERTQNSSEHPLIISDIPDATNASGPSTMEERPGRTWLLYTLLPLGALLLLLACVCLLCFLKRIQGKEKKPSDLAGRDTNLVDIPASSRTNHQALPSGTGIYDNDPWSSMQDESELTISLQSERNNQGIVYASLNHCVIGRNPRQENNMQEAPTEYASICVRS
Put plainly: flow cytometry on NIH 3T3 transfectants.
Description: as §2

T3 sequence (Q9EP73 19-265 limits assumed): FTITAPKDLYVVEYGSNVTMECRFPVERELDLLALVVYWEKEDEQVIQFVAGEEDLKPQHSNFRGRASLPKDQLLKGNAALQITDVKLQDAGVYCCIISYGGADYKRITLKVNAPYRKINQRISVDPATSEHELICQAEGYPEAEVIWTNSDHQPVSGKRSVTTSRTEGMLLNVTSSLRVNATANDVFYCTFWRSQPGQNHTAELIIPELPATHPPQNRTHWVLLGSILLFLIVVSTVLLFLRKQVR

B1: mouse BTLA-Fc fusion protein (Fc fusion)
chain: EKATKRNDEECPVQLTITRNSKQSARTGELFKIQCPVKYCVHRPNVTWCKHNGTICVPLEVSPQLYTSWEENQSVPVFVLHFKPIHLSDNGSYSCSTNFNSQVINSHSVTIHVTERTQNSSEHPLIISDIPDATNAS
notes: also called mBTLA-Fc; not shown: Fc-αTP part of the CD47-Fc-αTP-ires-GFP-RV vector (detected with anti-human IgG)
B1: in assay [1], the binding result is recorded as “no binding (tested: 200 ng of purified Fc-fusion protein)”.

B2: mouse BTLA tetramer (allele not stated at these places) (other, UniProt Q7TSA3 30-166, looked up)
chain: EKATKRNDEECPVQLTITRNSKQSARTGELFKIQCPVKYCVHRPNVTWCKHNGTICVPLEVSPQLYTSWEENQSVPVFVLHFKPIHLSDNGSYSCSTNFNSQVINSHSVTIHVRERTQNSSEHPLITVSDIPDATNA
modifications: biotinylated; bound to streptavidin-phycoerythrin
notes: domain: BTLA Ig domain; also called BTLA tetramers; tetramers of mouse BTLA
On to B2, for which the binding result in assay [2], in assay [3] and in assay [1] was “no binding” in each case.

B3: Myc-tagged full length human BTLA, tyrosine-phosphorylated (pervanadate) (receptor)
chain: KESCDVQLYIKRQSEHSILAGDPFELECPVKYCANRPHVTWCKLNGTTCVKLEDRQTSWKEEKNISFFILHFEPMLPNDNGSYRCSANFQSNLIESHSTTLYVTDVKGASERPSKDEVASRPWLLYSLLPLGGLPLLITTWFCLFCCLRRHQGKQNELSDTAGREINLVDAHLKSEQTEASTRQNSQVLLSEAGIYDNDPDLCFRMQEGSEVCSNPCLEENKPGIVYASLNHSVIGLNSRLARNVKEAPTEYASICVRS
modifications: tyrosine-phosphorylated after pervanadate treatment (Y226, Y257, Y282 are the tyrosines studied)
notes: Expressed in Jurkat T cells; also called myc-hBTLA; Myc3-hBTLA; not shown: triple Myc tag inserted downstream of the signal peptide
For B3, the binding result with SHIP, with SHP-1 and with Grb2 was “no binding” each time.

B4: C57BL/6 BTLA tetramer-phycoerythrin (other)
chain: EKATKRNDEECPVQLTITRNSKQSARTGELFKIQCPVKYCVHRPNVTWCKHNGTICVPLEVSPQLYTSWEENQSVPVFVLHFKPIHLSDNGSYSCSTNFNSQVINSHSVTIHVTERTQNSSEHPLIISDIPDATNASGGGLNDIFEAQKIEWHE
modifications: biotinylated in vitro with BirA ligase on the C-terminal BirA sequence; bound to streptavidin-phycoerythrin
notes: also called B6-BTLA pET28 product
B4: the binding result in [1], in assay [4] and in assay [5] was “no binding” in each case.

B5: BALB/c BTLA tetramer-phycoerythrin (other)
chain: DEECEVQLNIKRNSKHSAWTGELFKIECPVKYCVHRPNVTWCKHNGTIWVPLEVGPQLYTSWEENRSVPVFVLHFKPIHLSDNGSYSCSTWFWSQVINSHSVTIHVR
modifications: biotinylated in vitro with BirA ligase; bound to streptavidin-phycoerythrin
notes: also called BALB-BTLA pET28 product; not shown: biotinylation tag of the MLL1-pET28 vector
B5: the binding result in assay [1], in [4] and in assay [5] was “no binding” throughout.

B6: mB7x-Fc fusion protein (Fc fusion)
chain: LIIGFGISGKHFITVTTFTSAGNIGEDGTLSCTFEPDIKLNGIVIQWLKEGIKGLVHEFKEGKDDLSQQHEMFRGRTAVFADQVVVGNASLRLKNVQLTDAGTYTCYIRTSKGKGNANLEYKTGAFSMPEINVDYNASSESLRCEAPRWFPQPTVAWASQVDQGANFSEVSNTSFELNSENVTMKVVSVLYNVTINNTYSCMIENDIAKATGDIKVTDSEVKRRSQLQLLNSG
notes: not shown: Fc-αTP part of the CD47-Fc-αTP-ires-GFP-RV vector (detected with anti-human IgG)
For B6, the results for the binding result in [6] and in [1] were “no binding” and “no binding (tested: 200 ng of purified Fc-fusion protein)”, respectively.

B7: human BTLA-Fc fusion protein (Fc fusion)
chain: KESCDVQLYIKRQSEHSILAGDPFELECPVKYCANRPHVTWCKLNGTTCVKLEDRQTSWKEEKNISFFILHFEPMLPNDNGSYRCSANFQSNLIESHSTTLYVTDVKGASERPSKDEVA
notes: Used as 1 ml of supernatant for staining; also called hBTLA-Fc; not shown: Fc-αTP part of the CD47-Fc-αTP-ires-GFP-RV vector (detected with anti-human IgG)
As to B7, the binding result in assay [1] is listed as “binds”.
